For the assay, the target named is T1, Timeless (TIM), full length, FLAG-tagged (human, UniProt Q9UNS1 1-1208).
T1 construct: expressed from pcDNA4-Flag-Timeless; The plasmid is named Flag-Timeless; the results speak of a fused 3xFLAG-tag; also called flag-TIM; pcDNA4-Flag-Timeless
T1 sequence (looked up): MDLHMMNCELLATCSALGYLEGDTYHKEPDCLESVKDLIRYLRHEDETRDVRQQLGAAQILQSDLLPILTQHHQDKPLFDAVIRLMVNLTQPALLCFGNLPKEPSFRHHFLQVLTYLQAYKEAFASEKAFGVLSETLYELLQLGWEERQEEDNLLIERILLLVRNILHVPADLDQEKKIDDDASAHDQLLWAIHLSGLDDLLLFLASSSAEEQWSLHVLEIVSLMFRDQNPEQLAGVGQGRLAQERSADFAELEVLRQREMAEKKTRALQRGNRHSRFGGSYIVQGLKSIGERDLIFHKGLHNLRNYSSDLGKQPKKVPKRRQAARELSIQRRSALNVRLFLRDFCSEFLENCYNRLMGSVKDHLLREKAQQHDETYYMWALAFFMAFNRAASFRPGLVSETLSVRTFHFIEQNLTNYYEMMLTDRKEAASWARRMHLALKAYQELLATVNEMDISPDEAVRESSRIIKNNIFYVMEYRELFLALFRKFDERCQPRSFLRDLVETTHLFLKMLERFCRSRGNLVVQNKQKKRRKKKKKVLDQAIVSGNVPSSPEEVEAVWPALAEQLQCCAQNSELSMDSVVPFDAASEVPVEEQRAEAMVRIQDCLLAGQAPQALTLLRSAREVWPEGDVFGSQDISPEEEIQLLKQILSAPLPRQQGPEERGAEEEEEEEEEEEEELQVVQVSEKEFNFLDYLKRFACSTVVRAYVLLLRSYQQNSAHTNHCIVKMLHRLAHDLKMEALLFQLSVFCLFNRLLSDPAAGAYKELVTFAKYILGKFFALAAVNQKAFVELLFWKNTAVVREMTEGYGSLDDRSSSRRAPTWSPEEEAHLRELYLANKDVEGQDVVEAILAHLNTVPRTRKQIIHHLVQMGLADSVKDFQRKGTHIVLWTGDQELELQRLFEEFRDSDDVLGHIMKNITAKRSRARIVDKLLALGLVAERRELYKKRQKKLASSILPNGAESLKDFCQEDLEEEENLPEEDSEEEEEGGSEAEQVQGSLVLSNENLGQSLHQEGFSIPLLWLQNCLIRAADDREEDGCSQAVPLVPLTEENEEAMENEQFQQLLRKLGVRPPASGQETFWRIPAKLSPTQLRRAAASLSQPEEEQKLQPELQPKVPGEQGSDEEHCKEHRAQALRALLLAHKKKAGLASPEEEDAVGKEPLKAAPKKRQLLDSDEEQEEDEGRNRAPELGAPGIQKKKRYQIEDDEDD
The assay is described as follows: SEC; complex co-expressed in 293F cells and FLAG-purified; Superose 6 column in 50 mM HEPES pH 7.8, 150 mM NaCl, 0.5 mM TCEP; peak fractions checked by SDS-PAGE/Coomassie and immunoblot with TIM and TIPIN antibodies. The conditions noted are these: both partners purified.

B1: TIM-interacting protein (TIPIN), full length, FLAG-tagged (natural protein, human, UniProt Q9BVW5 1-301, looked up)
chain: MLEPQENGVIDLPDYEHVEDETFPPFPPPASPERQDGEGTEPDEESGNGAPVRVPPKRTVKRNIPKLDAQRLISERGLPALRHVFDKAKFKGKGHEAEDLKMLIRHMEHWAHRLFPKLQFEDFIDRVEYLGSKKEVQTCLKRIRLDLPILHEDFVSNNDEVAENNEHDVTSTELDPFLTNLSESEMFASELSRSLTEEQQQRIERNKQLALERRQAKLLSNSQTLGNDMLMNTPRAHTVEEVNTDEDQKEESNGLNEDILDNPCNDAIANTLNEEETLLDQSFKNVQQQLDATSRNITEAR
notes: expressed from pcDNA3-Flag-Tipin; also called flag-TIPIN; pcDNA3-Flag-Tipin
B1: the “stoichiometry N” value is 1.

The values are drawn from PMC7244016, “Knock-down of the TIM/TIPIN complex promotes apoptosis in melanoma cells” (Oncotarget, 2020).
